In series [1] the target is T1, PmrAC (C-terminal effector/DNA-binding domain of PmrA) (Klebsiella pneumoniae, UniProt W9BNR5 121-223).
T1 sequence: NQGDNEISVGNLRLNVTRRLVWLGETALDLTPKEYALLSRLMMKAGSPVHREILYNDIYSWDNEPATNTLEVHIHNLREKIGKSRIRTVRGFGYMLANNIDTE
The series is described as follows: fluorescence polarization; 20 mM sodium phosphate, 30 mM NaCl, pH 6.0; FP with 12 nM 6-FAM DNA (temperature not stated); ITC plus 0.5 mM EDTA at 25 C; NMR at 298 K. The note with it: protein: recombinant; tags: N-terminal extra Met; chain copies: 2; label: 5' 6-FAM (fluorescence polarization); none (NMR); blunt.

Series [2] deals with T1, PmrAC (C-terminal effector/DNA-binding …). The experiment in a line: fluorescence polarization; two-site fit, first site (half1); 20 mM sodium phosphate, 30 mM NaCl, pH 6.0; FP with 12 nM 6-FAM DNA (temperature not stated); ITC plus 0.5 mM EDTA at 25 C; NMR at 298 K. The note with it: protein: recombinant; tags: N-terminal extra Met; chain copies: 2; label: 5' 6-FAM (fluorescence polarization); none (NMR); blunt.

The target is the same in series [3]. The experiment in a line: NMR PRE; Mn2+ or Ca2+; 1:1; label does not affect interaction; 20 mM sodium phosphate, 30 mM NaCl, pH 6.0; FP with 12 nM 6-FAM DNA (temperature not stated); ITC plus 0.5 mM EDTA at 25 C; NMR at 298 K. The settings on record: protein: recombinant; tags: N-terminal extra Met; chain copies: 2; label: EDTA spin label (Mn2+/Ca2+); blunt.
Series [4] shares this target. The series is described as follows: NMR titration; range over residues; 20 mM sodium phosphate, 30 mM NaCl, pH 6.0; FP with 12 nM 6-FAM DNA (temperature not stated); ITC plus 0.5 mM EDTA at 25 C; NMR at 298 K. The note with it: protein: recombinant; tags: N-terminal extra Met; chain copies: 2; blunt.
Series [5] shares this target. The series is described as follows: ITC; 1:1 stoichiometry; 0.5 mM EDTA; 20 mM sodium phosphate, 30 mM NaCl, pH 6.0; FP with 12 nM 6-FAM DNA (temperature not stated); ITC plus 0.5 mM EDTA at 25 C; NMR at 298 K. The note with it: protein: recombinant; tags: N-terminal extra Met; chain copies: 2; blunt.
Series [6] shares this target. The experiment in a line: NMR PRE; Mn2+ or Ca2+; 2:1 protein:DNA; label does not affect interaction; 20 mM sodium phosphate, 30 mM NaCl, pH 6.0; FP with 12 nM 6-FAM DNA (temperature not stated); ITC plus 0.5 mM EDTA at 25 C; NMR at 298 K. The note with it: protein: recombinant; tags: N-terminal extra Met; chain copies: 2; label: EDTA spin label (Mn2+/Ca2+); blunt.
Series [7] has the same target. The series is described as follows: ITC; 2:1 protein:DNA; one-site fit; 0.5 mM EDTA; 20 mM sodium phosphate, 30 mM NaCl, pH 6.0; FP with 12 nM 6-FAM DNA (temperature not stated); ITC plus 0.5 mM EDTA at 25 C; NMR at 298 K. The settings on record: protein: recombinant; tags: N-terminal extra Met; chain copies: 2; blunt.

B1: box1b (dsDNA)
DNA 1: ATTATCCTAAGCAAGG
DNA 2: CCTTGCTTAGGATAAT
As for B1, the Kd in series [1] was determined as 9.3 ± 1.5 µM.

B2: box1 (dsDNA)
DNA 1: ATTTCTTAATATTATCCTAAGCAAG
DNA 2: CTTGCTTAGGATAATATTAAGAAAT
Regarding B2, the Kd in series [2] came out at 0.19 ± 0.01 µM.

B3: box1 dT-EDTA at THY4 (dsDNA)
DNA 1: ATTTCTTAATATTATCCTAAGCAAG
DNA 2: CTTGCTTAGGATAATATTAAGAAAT
modifications: dT-EDTA at T4 of strand 1
For B3, the binding result in series [3] is listed as “binds”.

B4: box1a (dsDNA)
DNA 1: AATTTCTTAATATTAT
DNA 2: ATAATATTAAGAAATT
In the case of B4, the dissociation constant (Kd) in series [1] amounted to 0.13 ± 0.01 µM.

B5: box2b (dsDNA)
DNA 1: CGTTTAAGTCCG
DNA 2: CGGACTTAAACG
For B5, the Kd in series [4] came to 31.9 µM; in series [5], 36.5 ± 9.4 µM.

B6: box1 dT-EDTA at THY28 (dsDNA)
DNA 1: ATTTCTTAATATTATCCTAAGCAAG
DNA 2: CTTGCTTAGGATAATATTAAGAAAT
modifications: dT-EDTA at THY28 (strand 2, position 3)
For the molecule B6, the binding result in series [6] is reported as “binds”.

B7: box2 (dsDNA)
DNA 1: TCATTTTAATTTCGTTTAAGTCCG
DNA 2: CGGACTTAAACGAAATTAAAATGA
Turning to B7, in series [7], the Kd is 0.97 ± 0.13 µM.

Values taken from publication PMC3973317, “Solution structure and tandem DNA recognition of the C-terminal effector domain of PmrA from Klebsiella pneumoniae”.
